Residue numbers refer to the chain shown, from its start. Names may count otherwise.
T1: 3-pHis peptide (biotin-aminocaproic acid-AGAG-3-pHis-AGAG)
T1 sequence (peptide, biotin-aminocaproic acid on the N-terminus; 3-phosphohistidine at position 5): AGAGHAGAG

B1: hSC44.20.N32F^L IgG (antibody, V domains shown)
VH: EVQLVESGGGLVQPGGSLRLSCTASGFSIDSYGFSWVRQAPGKGLEHIGYLTAGGRAFYASWAKSRSTITRNTNENTVTLKMNSLRAEDTAVYYCAKLGTGSRFAIWGQGTLVTVSS
VL: DIQMTQSPSSLSASVGDRVTITCRASQSVWRNKFVAWYQQKPGKAPKRLIYAIASLYSGVPSRFSGSGSGTDFTLTISSLQPEDFATYYCVGHYGSENDAYYAFGQGTKVEIK
B2: hSC44.20 IgG (antibody, V domains shown)
VH: B1 VH
VL: B1 VL with F34N
B3: rSC44 IgG (rabbit SC44-8 anti-3-pTza/3-pHis mAb) (antibody, V domains shown)
VH: QSVKESGRGLVQPGGSLTLTCTASGFSIDSYGFSWVRQAPGKGLEHIGYLTAGGRAFYASWAKSRSTITRNTNENTVTLKMTSLTAADTATYFCAKLGSGNPVAIWGPGTLVTVSS
VL: QVLTQTPSFTSAAVGGTVTINCQSSQSVWRNKNLAWYQQKPGQPPKRLIYAIATLDSGVPSRFSGSGSGTQFTLTISDVQCDDAATYYCVGHYGSENDAYYAFGGGTEVVVK
B4: hSC44 IgG (humanized version of rSC44) (antibody, V domains shown)
VH: B1 VH with T100S, S102N, R103P, F104V
VL: B1 VL with F34N
B5: hSC44.8 IgG (antibody, V domains shown)
VH: EVQLVESGGGLVQPGGSLRLSCTASGFSIDSYGFSWVRQAPGKGLEHIGYLTAGGRAFYASWAKSRSTITRNTNENTVTLKMNSLRAEDTAVYYCAKIGTGSRVAIWG
VL: B1 VL with F34N
B6: hSC44.22 IgG (antibody, V domains shown)
VH: B5 VH with I98L, S102T, R103P
VL: B1 VL with F34N
B7: hSC44.1 IgG (antibody, V domains shown)
VH: B1 VH with R103P, F104I
VL: B1 VL with F34N
B8: hSC44.31 IgG (antibody, V domains shown)
VH: B1 VH with S102T, R103P
VL: B1 VL with F34Y
B9: hSC44.13 IgG (antibody, V domains shown)
VH: B5 VH with I98L, R103P
VL: B1 VL with F34N
B10: hSC44.20.N32Y^L IgG (antibody, V domains shown)
VH: B1 VH
VL: B1 VL with F34Y
B11: hSC44.28 IgG (antibody, V domains shown)
VH: B5 VH with I98L, R103P, V104L
VL: B1 VL
B12: hSC44.3 IgG (antibody, V domains shown)
VH: B5 VH with T100S, R103P
VL: B1 VL with F34N

target: 3-pHis form of ACLY (120 kDa) (Homo sapiens (HEK293T, endogenous), UniProt P53396, 3-phosphohistidine (residue not stated)); assay: immunoblot
Sequence (P53396 whole entry): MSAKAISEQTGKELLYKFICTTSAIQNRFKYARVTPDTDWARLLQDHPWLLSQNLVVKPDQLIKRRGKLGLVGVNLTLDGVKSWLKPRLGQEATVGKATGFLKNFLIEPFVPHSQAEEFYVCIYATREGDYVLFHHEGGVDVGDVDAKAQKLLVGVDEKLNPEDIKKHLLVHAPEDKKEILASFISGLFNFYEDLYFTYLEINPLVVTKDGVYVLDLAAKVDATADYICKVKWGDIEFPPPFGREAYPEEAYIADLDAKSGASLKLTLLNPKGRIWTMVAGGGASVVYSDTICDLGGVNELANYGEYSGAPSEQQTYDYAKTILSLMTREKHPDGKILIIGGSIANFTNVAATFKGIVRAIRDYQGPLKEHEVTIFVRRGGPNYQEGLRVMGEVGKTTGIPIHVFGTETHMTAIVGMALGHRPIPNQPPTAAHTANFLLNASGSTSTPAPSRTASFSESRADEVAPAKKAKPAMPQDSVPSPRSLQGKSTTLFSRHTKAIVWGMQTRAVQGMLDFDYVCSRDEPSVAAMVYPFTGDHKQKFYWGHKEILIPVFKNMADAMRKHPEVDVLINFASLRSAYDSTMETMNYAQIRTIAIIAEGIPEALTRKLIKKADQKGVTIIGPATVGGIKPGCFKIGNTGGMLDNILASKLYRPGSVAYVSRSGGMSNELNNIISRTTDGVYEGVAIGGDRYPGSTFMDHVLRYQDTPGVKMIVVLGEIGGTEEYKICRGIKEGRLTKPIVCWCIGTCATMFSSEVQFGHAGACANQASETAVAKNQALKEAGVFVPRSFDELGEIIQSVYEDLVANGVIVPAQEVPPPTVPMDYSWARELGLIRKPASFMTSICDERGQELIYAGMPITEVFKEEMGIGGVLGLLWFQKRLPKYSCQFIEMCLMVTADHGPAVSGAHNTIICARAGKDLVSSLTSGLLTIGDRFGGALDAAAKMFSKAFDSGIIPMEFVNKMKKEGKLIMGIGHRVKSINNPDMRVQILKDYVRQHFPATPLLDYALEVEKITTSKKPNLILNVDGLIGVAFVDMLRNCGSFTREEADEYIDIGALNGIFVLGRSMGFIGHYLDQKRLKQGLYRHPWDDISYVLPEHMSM

Row | binding result | Binder
1 | binds | B1
2 | binds | B2
3 | binds | B3

target: 3-pTza peptide (Biotin-AminocaproicAcid-AGAG-3-pTza-AGAG); assay: BLI

Row | Kd | koff | kon | Binder
4 | 1.2 nM | – | – | B4
5 | 0.185 nM | 6.66e-05 s⁻¹ | 359000 M⁻¹ s⁻¹ | B5
6 | 1.54 nM | 5.73e-05 s⁻¹ | 37300 M⁻¹ s⁻¹ | B1
7 | < 0.001 nM | – | 257000 M⁻¹ s⁻¹ | B2
8 | 0.495 nM | 4.49e-05 s⁻¹ | 90600 M⁻¹ s⁻¹ | B6
9 | 0.588 nM | 8.32e-05 s⁻¹ | 141000 M⁻¹ s⁻¹ | B7
10 | 2.71 nM | 3.98e-05 s⁻¹ | 14700 M⁻¹ s⁻¹ | B8
11 | 0.405 nM | 7.37e-05 s⁻¹ | 182000 M⁻¹ s⁻¹ | B9
12 | < 0.001 nM | – | 35100 M⁻¹ s⁻¹ | B10
13 | 1.21 nM | – | 24900 M⁻¹ s⁻¹ | B11
14 | 0.352 nM | 1.43e-05 s⁻¹ | 40700 M⁻¹ s⁻¹ | B12

target: T1, 3-pHis peptide (biotin-aminocaproic acid-AGAG-3-pHis-AGAG); assay: BLI

Row | Kd | koff | kon | Binder
15 | 1.68 nM | 1.64e-05 s⁻¹ | 13900 M⁻¹ s⁻¹ | B1
16 | 21 nM | – | 75500 M⁻¹ s⁻¹ | B2
17 | 9.5 nM | 2.61e-05 s⁻¹ | 8880 M⁻¹ s⁻¹ | B10
